The source of these data is US20110172153A1 (GENERAL HOSPITAL, published 2011).

The target in assay [1] is T1, human parathyroid hormone receptor (PTHR) (human, UniProt Q03431 27-593).
T1 construct: Assayed in membranes of HKRK-B7 cells or of transiently transfected COS-7 cells, or on intact HKRK-B7/HKRK-B64/COS-7 cells; RG = co-transfected with negative-dominant Galpha-s; R0 = receptor alone plus GTPgammaS; also called hPTHR; human PTH receptor
T1 sequence: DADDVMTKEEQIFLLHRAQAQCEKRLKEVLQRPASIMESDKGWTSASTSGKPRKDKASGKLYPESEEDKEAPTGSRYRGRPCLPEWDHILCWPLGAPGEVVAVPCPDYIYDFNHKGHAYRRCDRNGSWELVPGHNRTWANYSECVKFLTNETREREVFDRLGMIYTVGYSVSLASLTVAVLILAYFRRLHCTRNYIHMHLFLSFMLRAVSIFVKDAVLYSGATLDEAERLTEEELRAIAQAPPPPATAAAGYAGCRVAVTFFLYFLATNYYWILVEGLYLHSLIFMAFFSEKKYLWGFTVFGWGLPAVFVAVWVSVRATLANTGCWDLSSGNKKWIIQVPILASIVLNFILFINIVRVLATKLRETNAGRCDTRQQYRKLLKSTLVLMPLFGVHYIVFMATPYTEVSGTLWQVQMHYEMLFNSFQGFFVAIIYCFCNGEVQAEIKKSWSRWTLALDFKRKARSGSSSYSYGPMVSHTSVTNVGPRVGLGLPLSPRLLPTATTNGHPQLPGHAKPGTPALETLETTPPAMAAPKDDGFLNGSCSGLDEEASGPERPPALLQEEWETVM
Nature of the assay: ratio of R0 IC50 to RG IC50, hPTHR.

Assay [2] addresses T2, rat parathyroid hormone receptor (PTHR) (rat, UniProt P25961 27-591).
T2 construct: Endogenous in ROS17/2.8 cells (membranes or intact cells); also called rat PTHR; rat PIR
T2 sequence: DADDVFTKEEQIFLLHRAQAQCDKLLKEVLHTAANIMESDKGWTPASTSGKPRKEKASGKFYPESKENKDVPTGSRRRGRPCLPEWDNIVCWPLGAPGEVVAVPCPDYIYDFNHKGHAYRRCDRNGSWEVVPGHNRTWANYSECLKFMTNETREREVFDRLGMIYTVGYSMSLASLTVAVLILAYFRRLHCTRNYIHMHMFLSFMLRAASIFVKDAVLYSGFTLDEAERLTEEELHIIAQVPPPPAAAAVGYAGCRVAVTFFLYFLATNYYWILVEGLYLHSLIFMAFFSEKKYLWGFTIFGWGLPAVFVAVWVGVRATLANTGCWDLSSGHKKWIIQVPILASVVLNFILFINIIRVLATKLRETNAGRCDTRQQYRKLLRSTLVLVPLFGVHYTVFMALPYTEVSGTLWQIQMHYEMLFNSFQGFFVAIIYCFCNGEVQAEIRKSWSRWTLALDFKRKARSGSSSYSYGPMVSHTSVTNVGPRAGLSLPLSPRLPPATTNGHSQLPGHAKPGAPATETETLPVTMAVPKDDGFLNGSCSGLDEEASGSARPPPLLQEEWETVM
The experiment in a line: competition radioligand binding, rat PIR RG.

Assay [3] concerns the target T1, human parathyroid hormone receptor …. The experiment in a line: competition radioligand binding, hPTHR RG conformation. The method, then: (§1) Binding Studies. Binding studies were performed using cell membranes as described (Dean et al., Mol Endocrinol 20(4):931-43 (2006)). […] Reactions contained a total membrane protein concentration of 20 to 100 μg/mL, and a total radioactivity concentration of approximately 150,000 cpm/ml. Unlabeled peptide ligands and/or GTPγS (Sigma-Aldrich Inc. St. Louis, Mo.) were added to the reactions as indicated. At the end of the reaction, bound and free radioligand were separated by vacuum filtration using a 96-well vacuum filter plate and vacuum filter apparatus (Multi-Screen system with Durapore HV, […] filters; Millipore Corp., Milford, Mass.); the air-dried filters were then detached from the plate and counted for gamma radioactivity using a gamma counter.
(§2) To assess the capacities of various unlabeled peptide ligands to bind to the G protein-uncoupled and G protein-coupled PTHR conformations (R⁰ and RG, respectively), membranes were prepared from transiently transfected COS-7 cells and the following assay conditions.

For assay [4] the target is unchanged. Nature of the assay: competition radioligand binding, hPTHR R0 conformation. The method, then:
as §1, §2

Assay [5] shares this target. Nature of the assay: cell-based or functional assay.
Assay [6] has the same target. The experiment in a line: competition radioligand binding, human PIR RG. As to the method:
as §1, §2

For assay [7] the target is unchanged. The experiment in a line: competition radioligand binding, human PIR R0. As to the method: as §1, §2
In assay [8] the target is T2, rat parathyroid hormone receptor (PTHR). The experiment in a line: competition radioligand binding, rat PIR R0.
In assay [9] the target is T1, human parathyroid hormone receptor …. The experiment in a line: cell-based or functional assay. The source holds these as a separate data set.
The target is the same in assay [10]. The experiment in a line: ratio of R0 IC50 to RG IC50, hPTHR. This is another data set of the same source.
The target is the same in assay [11]. Nature of the assay: cell-based or functional assay. This is another data set of the same source.
For assay [12], the target named is T2, rat parathyroid hormone receptor (PTHR). The experiment in a line: near-equilibrium radioligand binding, ROS17/2.8 membranes.
For another assay, the target named is PTHR-CFPIC3/YFPCT (human). The experiment in a line: cell-based or functional assay.
Assay [13] concerns the target T1, human parathyroid hormone receptor …. Nature of the assay: competition radioligand binding, human PTH1 receptor R0. The method, then: as §1, §2
Assay [14] shares this target. Nature of the assay: competition radioligand binding, human PTH1 receptor RG. The method, then: as §1, §2
For assay [15] the target is unchanged. Nature of the assay: ratio of R0 IC50 to RG IC50, human PTH1 receptor.
Assay [16] shares this target. Nature of the assay: competition vs 125I-[Aib1,3,M]PTH(1-15), COS-7 membranes hPTHR + GsND (RG). As to the method:
(§3) Radioligand dissociation. These studies were performed as bulk reactions in 15 mL round-bottom polystyrene snap-cap tubes (Falcon) (total reaction volume=5.0 ml). Membranes and radioligand were pre-incubated for 90 minutes to allow complex formation; the dissociation phase was then initiated by the addition of an excess of the unlabeled analog of the radioligand (5×10⁻⁷ M final concentration), with or without GTPγS (5×10⁻⁵ M). Immediately prior to this addition (t=0), and at successive time-points thereafter, 0.2 ml aliquots (30,000 cpm) were withdrawn and immediately processed by vacuum filtration, as described above. Non-specific binding was determined in parallel reaction tubes containing the unlabeled analog of the radioligand (5×10⁻⁷ M) in both the pre-incubation and dissociation phases. The specifically bound radioactivity at each time point was calculated as a percent of the radioactivity specifically bound at t=0. Equilibrium competition binding and GTPγS inhibition. […] Membranes, tracer radioligand, and various concentrations of unlabeled ligands and/or GTPγS were incubated in the wells for 90 minutes, following which, the reaction plates were processed by rapid vacuum filtration to separate bound from free radioligand, as described above. […] For both radioligands, the non-specific binding was determined in reactions containing a saturating concentration of the unlabeled analog of the radioligand. The specifically bound radioactivity was calculated as a percent of the radioactivity specifically bound in the absence of a competing ligand or GTPγS.

Assay [17] has the same target. Nature of the assay: competition vs 125I-PTH(1-34) + GTPgammaS, COS-7 membranes hPTHR (R0). As to the method:
as §3

As usually defined, the IC50 is the point on the concentration scale where inhibition reaches its midpoint.

Square brackets hold non-standard residues; d marks the D form. Ends that are not written are not given here. hArg = N=C(N)NCCCC[C@H](N)C(=O)O; Nle = CCCC[C@H](N)C(=O)O; Aib = CC(C)(N)C(=O)O

B1: A18,22,L25,K26-PTHrP(1-28)NH (peptide)
peptide: AVSEHQLLHDKGKSIQDARRRAFLLKLI-NH2
modifications: not fully specified
notes: also called [Ala^18,22,Leu^25,Lys^26]-PTHrP(1-28); AALK-PTHrP(1-28)
In the case of B1, the R0/RG selectivity in assay [1] amounted to 6970. In addition, the IC50 came out at 0.16 nM in [2]; 0.04 nM in [3]; 310 nM in assay [4]; 0.04 nM in [6]; 310 nM in assay [7]; 34.9 nM in assay [8]. The “cAMP in HKRK-B7 cells, EC50” value in [5] amounted to 0.52 nM. The “cAMP in HKRK-B7 cells, Max” value in [5] came out at 56.4 pm/well.

B2: [Nle^8,21,Tyr^34]rPTH(1-34)NH2 (peptide)
peptide: AVSEIQLXHNLGKHLASVERXQWLRKKLQDVHNY
modifications: Nle at 8 and 21; C-terminal amide
notes: also called [Nle^8,21,Tyr^34]rat(r)PTH(1-34)NH2; control PTH(1-34) analog
For B2, in [9], the “IP in COS-7/hPTHR cells, EC50” value was 18 nM; the “IP in COS-7/hPTHR cells, Emax” value was 2410 cpm/well; the “cAMP in HKRK-B64 cells, EC50” value was determined as 5.1 nM; the “cAMP in HKRK-B64 cells, Emax” value is 55 picomole/well. Besides, in [10], the “R0:RG” value was 5. In [11], the “delayed cAMP response 60 minutes after wash-out, % of maximum, HKRK-B64 cells” value turned out to be 47% and the “t1/2 of decay of the cAMP signaling response, HKRK-B7 cells” value was around 2 h.

B3: ^125I-[Nle^8,21,Tyr^34]rPTH(1-34)NH2 (peptide)
peptide: AVSEIQLXHNLGKHLASVERXQWLRKKLQDVHNY
modifications: 125I label (oxidative chloramine-T procedure); Nle at 8 and 21; C-terminal amide
notes: Radioligand; tracer of the R0 assay
B3: the binding result in [12] is on record as “binds”.

B4: [Aib^1,3,Gln^10,Har^11,Ala^12,Trp^14]rPTH(1-14)NH2 (peptide)
peptide: [Aib]V[Aib]EIQLMHQ[hArg]AKW-NH2
modifications: N-terminus assumed
SMILES: CC[C@H](C)[C@H](NC(=O)[C@H](CCC(=O)O)NC(=O)C(C)(C)NC(=O)[C@@H](NC(=O)C(C)(C)N)C(C)C)C(=O)N[C@@H](CCC(N)=O)C(=O)N[C@@H](CC(C)C)C(=O)N[C@@H](CCSC)C(=O)N[C@@H](Cc1c[nH]cn1)C(=O)N[C@@H](CCC(N)=O)C(=O)N[C@@H](CCCCNC(=N)N)C(=O)N[C@@H](C)C(=O)N[C@@H](CCCCN)C(=O)N[C@@H](Cc1c[nH]c2ccccc12)C(N)=O
As to B4, the “t1/2 of the FRET response” value with PTHR-CFPIC3/YFPCT was 0.5 s.

Take [Aib]V[Aib]EIQL[Nle]HQ[hArg]AKWY-NH2 (also: 125I label, site not given here, Radioligand; tracer of the RG assay) [^125I-[Aib^1,3,M]PTH(1-15)NH2]: the binding result in [12] is given as “binds”.

In the case of AVSEHQLLHDKGKSIQDERRRAFLLKLIAE-NH2 (also called EALK-PTHrP(1-30)) [E18,A22,L25,K26-PTHrP(1-30)NH], in [1], the R0/RG selectivity was found to be 11200. Moreover, the IC50 in [2] turned out to be 0.21 nM; in assay [3] it was 0.08 nM; in assay [4], 945 nM; in assay [13], 945 nM; in [6] it was 0.08 nM; in [7], 945 nM. Moreover, the IC50 in assay [14] was found to be 0.08 nM; in assay [8], 76.3 nM. Also, the R0/RG ratio in [15] worked out at 11800.

Take AVSEIQLLHDKGKSIQDLRRRFFLHHLIAEIHTAEY-NH2 [[Ile^5,Tyr^36]hPTHrP(1-36)NH2]: the “t1/2 of the FRET response” value with PTHR-CFPIC3/YFPCT is 0.5 to 0.7 s.

In the case of AVSEIQLLHDKGKSIQDLRRRFFLHHLIAEIHTAEY-NH2 (also: 125I label, site not given here, Radioligand) [^125I-[Ile^5,Tyr^36]PTHrP(1-36)NH2], in assay [12], the binding result is “binds”.

Consider AVSEHQLLHDKGKSIQDERRRAFLHHKIAEI-NH2 (Name as printed (K27)) [E18,A22,K27-PTHrP(1-31)NH], for which the IC50 in assay [2] is 0.23 nM; in assay [8], 54.8 nM.

Turning to SVSEIQLMHNLGKHLNSMERVEWLRKKLQDVHNF [hPTH(1-34)], the “t1/2 of the reduction in FRET signal” value with PTHR-CFPIC3/YFPCT was 0.7 s.

With SVSEHQLMHNLGKHLNSMERVEWLRKKLQDVHNF-NH2 [[His^5]hPTH(1-34)NH2], the “R0:RG” value in [10] is 160. The IC50 in assay [16] is 0.76 nM; in assay [17], 122 nM. Also, in [11], the “delayed cAMP response 60 minutes after wash-out, % of maximum, HKRK-B64 cells” value turned out to be 34%.

B5: [A1,3,23]-PTH(1-34)OH (peptide)
peptide: AVAEIQLMHNLGKHLNSMERVEALRKKLQDVHNF-OH
notes: also called [A^1,A^3,A^23]-PTH(1-34)OH; [A1,3,23]-hPTH(1-34)
The molecule B5 showed a half-maximal inhibitory concentration (IC50) in assay [13] of 1840 nM. Besides, in [5], the “cAMP in HKRK-B7 cells, EC50” value was 1.93 nM and the “cAMP in HKRK-B7 cells, Max” value was found to be 66.6 pm/well. The molecule also gave an IC50 in [14] of 0.43 nM. In addition, the R0/RG ratio in assay [15] came out at 4290.
